Measured values: patent US20100041597A1 (published 2010)
Where no end group is shown, it is not given here.

Key:
[1] = biological target: T1, PKC-ε (endogenous, human cell extracts) (human, UniProt Q02156 1-737); assay: Protocol B blot competition, IMR-32 extract, competitor anti-PKC-ε Ab, Band 2; PRE 50 µg
T1 construct: Two bands on the blot, said to be alternate splicing variants; also called PKC-epsilon; PKC-ε Band 1
T1 sequence (looked up): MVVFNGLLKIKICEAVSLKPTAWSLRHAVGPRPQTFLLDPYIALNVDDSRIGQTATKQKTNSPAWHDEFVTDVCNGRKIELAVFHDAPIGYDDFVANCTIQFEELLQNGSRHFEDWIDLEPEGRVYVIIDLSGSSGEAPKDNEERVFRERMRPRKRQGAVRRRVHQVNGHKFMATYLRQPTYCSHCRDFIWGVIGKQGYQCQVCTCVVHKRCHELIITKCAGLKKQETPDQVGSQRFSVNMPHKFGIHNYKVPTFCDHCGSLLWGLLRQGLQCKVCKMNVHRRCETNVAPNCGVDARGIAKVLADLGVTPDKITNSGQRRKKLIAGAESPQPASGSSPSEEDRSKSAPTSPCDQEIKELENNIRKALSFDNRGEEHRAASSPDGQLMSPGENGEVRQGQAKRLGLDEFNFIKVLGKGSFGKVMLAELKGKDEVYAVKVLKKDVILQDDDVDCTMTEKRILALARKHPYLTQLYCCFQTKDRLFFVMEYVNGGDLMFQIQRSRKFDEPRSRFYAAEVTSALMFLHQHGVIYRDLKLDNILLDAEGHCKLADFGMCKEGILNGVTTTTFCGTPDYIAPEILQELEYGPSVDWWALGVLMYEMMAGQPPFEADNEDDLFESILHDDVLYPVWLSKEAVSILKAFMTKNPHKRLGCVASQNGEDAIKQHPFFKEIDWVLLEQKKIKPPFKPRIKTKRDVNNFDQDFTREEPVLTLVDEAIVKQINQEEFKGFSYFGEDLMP
Experimental: (§1) The ability of the peptides PRE 2 and PRE 3 (see Table 3) to interfere with the binding of a PKC-α-specific polyclonal antibody (Santa Cruz Biotechnology, Inc.) to PKC-α was determined using a modified version of the protocol outlined above in which the test peptide was added directly to the cell extract prior to electrophoresis at a concentration of either 5× or 15× the concentration of the protein applied to each well of the gel for the Western blots (20 μg).
(§2) Peptides PRE 2, PRE 3 and PRE 4 (see Table 3) were tested for their ability to interfere with the binding of isoform-specific polyclonal antibodies (Santa Cruz Biotechnology, Inc.) to PKC-ε using the general protocol described in Example 3. Two bands, representing alternate splicing variants of PKC-ε, were identified on the Western blot using this anti-PKC-ε antibody.

[2] = biological target: T1, PKC-ε (endogenous, human cell extracts); assay: Protocol B blot competition, IMR-32 extract, competitor anti-PKC-ε Ab, Band 1; PRE 20 µg
Experimental: as §1, §2

[3] = biological target: T1, PKC-ε (endogenous, human cell extracts); assay: Protocol B blot competition, IMR-32 extract, competitor anti-PKC-ε Ab, Band 1; PRE 50 µg
Experimental: as §1, §2

[4] = biological target: T1, PKC-ε (endogenous, human cell extracts); assay: Protocol B blot competition, IMR-32 extract, competitor anti-PKC-ε Ab, Band 2; PRE 100 µg
Experimental: as §1, §2

[5] = biological target: T1, PKC-ε (endogenous, human cell extracts); assay: Protocol B blot competition, IMR-32 extract, competitor anti-PKC-ε Ab, Band 2; PRE 20 µg
Experimental: as §1, §2

[6] = biological target: T1, PKC-ε (endogenous, human cell extracts); assay: Protocol B blot competition, IMR-32 extract, competitor anti-PKC-ε Ab, Band 1; PRE 100 µg
Experimental: as §1, §2

[7] = biological target: T2, PKC-βII (purified isoform) (Homo sapiens (Human), UniProt P05771 2-621); assay: competitive ELISA on purified PKC-βII vs anti-PKC-βII Ab; PRE 50 µM
T2 construct: also called PKC-beta II
Experimental: (§3) Greiner 96 well ELISA plates were coated with the appropriate PKC isoform diluted in PBSN (PBS with Calcium/Magnesium+0.05% Sodium azide w/w). 50 μL/well at 250 ng/mL was used. Control wells contained PBSN only. Plates were incubated overnight at 4° C.
(§4) The plates were washed 3 times with 200 μL of dH₂O per well, then 100 μL of blocking solution was added per well and the plate incubated for 1 h at 37° C. The washing steps with dH₂O were repeated and 50 μL of the appropriate PRE solution (PRE stock solution [20 mM in DMSO] diluted in PBSN) was added and the plate incubated for 1 h at room temperature.
(§5) 50 μL of 1:1000 dilution of Alkaline Phosphatase (AP) conjugated antibody (anti-rabbit for all except zeta, which was anti-goat) was then added and the plate incubated for 1 h at room temperature. Washing with dH₂O was then repeated. Finally, 100 μL of pNPP solution in pNPP buffer (2 mM MgCl₂, 100 mM Sodium bicarbonate in water, pH 9.8) was added to all wells and incubated for 8 minutes for α, βI, βII ε, and ζ, or for 15-20 mins for […] (until sufficient coloration is observed). The reaction was stopped by addition of Stop solution (2N NaOH) and the absorbance at 405 nm was read on a Galaxy Plate reader.

[8] = biological target: T2, PKC-βII (purified isoform); assay: competitive ELISA on purified PKC-βII vs anti-PKC-βII Ab; PRE 200 µM
Experimental: as §3, §4, §5

[9] = biological target: T2, PKC-βII (purified isoform); assay: competitive ELISA on purified PKC-βII vs anti-PKC-βII Ab; PRE 100 µM
Experimental: as §3, §4, §5

[10] = biological target: T3, PKC-α (endogenous, human cell lysates and cells) (human, UniProt P17252 2-672); assay: anti-PKC-α immunofluorescence, V5E-transfected IMR-32 cells loaded with PRE (label on PKC-α and V5E); control with endocytosis reagent 113
T3 construct: Endogenous protein of human cell lysates, on Western blot membranes (denatured) or in fixed cells; also called PKC-alpha; PKC-A
From the text: Neuroblastoma cells from the IMR-32 cell line were stably transfected with a vector containing the V5E sequence of PKC-α as outlined above in Example 13. The V5E sequence is part of the antigenic amino acid sequence that is used to raise the commercially available anti-PKC-α isoform-specific antibody.
The peptides PRE 1, 2, 3, 4, 5, 6, 7, 8, 9, 10, 11, 12 and 13 (see Table 3) were incorporated into the transfected IMR-32 cells via pinocytic endocytosis (Molecular Probes) according to the supplier's recommendations. Following fixation and permeabilization, PKC-α was detected using an Alexa fluor secondary antibody (as described above in Example 8).

PKC-ζ (purified isoform) [11] = biological target: T4, PKC-ζ (purified isoform) (Homo sapiens (Human), UniProt Q05513 1-592); assay: competitive ELISA on purified PKC-ζ vs anti-PKC-ζ Ab; PRE 100 µM
T4 construct: also called PKC-zeta; PKCzeta
T4 sequence: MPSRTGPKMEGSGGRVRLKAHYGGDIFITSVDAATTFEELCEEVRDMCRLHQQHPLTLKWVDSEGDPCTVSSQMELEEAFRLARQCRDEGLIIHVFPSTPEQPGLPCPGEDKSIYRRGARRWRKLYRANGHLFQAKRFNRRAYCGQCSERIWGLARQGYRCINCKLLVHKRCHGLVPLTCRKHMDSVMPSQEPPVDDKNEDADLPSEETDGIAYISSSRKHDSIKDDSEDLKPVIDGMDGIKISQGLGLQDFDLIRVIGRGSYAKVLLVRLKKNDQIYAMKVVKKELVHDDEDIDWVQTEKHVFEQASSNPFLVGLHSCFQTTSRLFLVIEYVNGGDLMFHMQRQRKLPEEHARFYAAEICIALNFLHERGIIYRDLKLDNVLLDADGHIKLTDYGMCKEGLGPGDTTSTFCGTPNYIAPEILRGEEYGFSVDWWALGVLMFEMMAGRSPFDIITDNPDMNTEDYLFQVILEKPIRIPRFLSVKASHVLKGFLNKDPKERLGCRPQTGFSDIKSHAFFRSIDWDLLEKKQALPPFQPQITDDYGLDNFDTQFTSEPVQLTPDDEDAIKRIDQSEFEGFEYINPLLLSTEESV
Experimental: as §3, §4, §5

PKC-ζ (purified isoform) [12] = biological target: T4, PKC-ζ (purified isoform); assay: competitive ELISA on purified PKC-ζ vs anti-PKC-ζ Ab; PRE 50 µM
Experimental: as §3, §4, §5

PKC-δ (purified isoform) [13] = biological target: T5, PKC-δ (purified isoform) (Homo sapiens (Human), UniProt Q05655 1-676); assay: competitive ELISA on purified PKC-δ vs anti-PKC-δ Ab; PRE 50 µM
T5 construct: also called PKC-delta; PKCdelta
Experimental: as §3, §4, §5

PKC-δ (purified isoform) [14] = biological target: T5, PKC-δ (purified isoform); assay: competitive ELISA on purified PKC-δ vs anti-PKC-δ Ab; PRE 200 µM
Experimental: as §3, §4, §5

PKC-ζ (purified isoform) [15] = biological target: T4, PKC-ζ (purified isoform); assay: competitive ELISA on purified PKC-ζ vs anti-PKC-ζ Ab; PRE 200 µM
Experimental: as §3, §4, §5

PKC-ζ (purified isoform) [16] = biological target: T4, PKC-ζ (purified isoform); assay: summary grade, purified isoform ELISA
PKC-δ (purified isoform) [17] = biological target: T5, PKC-δ (purified isoform); assay: competitive ELISA on purified PKC-δ vs anti-PKC-δ Ab; PRE 100 µM
Experimental: as §3, §4, §5

T5 sequence (Q05655 whole entry, stated change not applied, canonical isoform): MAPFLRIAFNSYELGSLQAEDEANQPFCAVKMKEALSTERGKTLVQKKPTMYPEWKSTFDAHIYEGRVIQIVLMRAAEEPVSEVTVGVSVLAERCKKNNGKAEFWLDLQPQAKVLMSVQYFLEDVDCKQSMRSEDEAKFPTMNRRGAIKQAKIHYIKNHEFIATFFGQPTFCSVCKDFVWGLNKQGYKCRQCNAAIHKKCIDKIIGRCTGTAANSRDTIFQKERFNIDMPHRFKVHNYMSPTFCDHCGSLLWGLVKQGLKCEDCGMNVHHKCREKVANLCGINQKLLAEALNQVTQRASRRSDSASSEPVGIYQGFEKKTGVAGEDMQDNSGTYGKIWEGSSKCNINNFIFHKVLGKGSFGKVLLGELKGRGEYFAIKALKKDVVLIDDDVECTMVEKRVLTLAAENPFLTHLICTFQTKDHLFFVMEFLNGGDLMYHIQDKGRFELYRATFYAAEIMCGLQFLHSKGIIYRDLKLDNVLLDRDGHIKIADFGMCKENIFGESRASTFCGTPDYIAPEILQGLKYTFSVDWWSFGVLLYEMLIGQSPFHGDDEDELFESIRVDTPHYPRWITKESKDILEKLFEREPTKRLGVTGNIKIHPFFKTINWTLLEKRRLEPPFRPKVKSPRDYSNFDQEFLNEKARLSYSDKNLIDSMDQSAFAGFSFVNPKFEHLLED
T2 sequence (P05771 other isoform, or with tags, fused parts or gaps limits assumed): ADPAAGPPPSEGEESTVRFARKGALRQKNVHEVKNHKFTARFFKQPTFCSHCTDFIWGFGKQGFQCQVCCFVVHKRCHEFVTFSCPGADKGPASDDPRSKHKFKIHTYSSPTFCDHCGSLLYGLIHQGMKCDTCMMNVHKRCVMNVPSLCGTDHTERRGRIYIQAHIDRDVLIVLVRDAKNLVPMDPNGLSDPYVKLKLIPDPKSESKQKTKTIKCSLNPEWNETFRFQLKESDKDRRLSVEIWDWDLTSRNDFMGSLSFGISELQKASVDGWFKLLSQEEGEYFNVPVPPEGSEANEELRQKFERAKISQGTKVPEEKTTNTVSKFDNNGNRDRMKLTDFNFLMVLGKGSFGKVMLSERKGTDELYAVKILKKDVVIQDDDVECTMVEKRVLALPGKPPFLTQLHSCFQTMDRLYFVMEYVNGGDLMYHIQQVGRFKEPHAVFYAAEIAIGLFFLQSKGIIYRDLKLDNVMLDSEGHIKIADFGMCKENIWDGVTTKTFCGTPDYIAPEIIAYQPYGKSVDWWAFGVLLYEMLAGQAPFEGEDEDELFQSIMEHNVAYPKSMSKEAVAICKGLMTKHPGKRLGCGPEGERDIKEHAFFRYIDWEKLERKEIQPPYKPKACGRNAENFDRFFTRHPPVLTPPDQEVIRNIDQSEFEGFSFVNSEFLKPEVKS

B1: PRE 2 (peptide)
peptide: KDAQNLIGISL-NH2
notes: Synthetic peptide; also called peptide PRE 2
band intensity [1]: 0 | inhibition (%) [1]: 100% | relative intensity (%) [1]: 0% | band intensity [2]: 323 | inhibition (%) [2]: 23.4% | relative intensity (%) [2]: 76.6% | band intensity [3]: 0 | inhibition (%) [3]: 100% | relative intensity (%) [3]: 0% | band intensity [4]: 0 | inhibition (%) [4]: 100% | relative intensity (%) [4]: 0% | band intensity [5]: 160 | inhibition (%) [5]: 38.6% | relative intensity (%) [5]: 61.4% | band intensity [6]: 0 | inhibition (%) [6]: 100% | relative intensity (%) [6]: 0%

B2: PRE 10 (peptide)
peptide: Ac-ISIGILNQADK-NH2
notes: Synthetic peptide; also called peptide PRE 10
binding capacity (%) [7]: 0% | binding capacity (%) [8]: 0% | binding capacity (%) [9]: 0% | Relative Fluorescence Intensity [10]: 122

B3: PRE 8 (peptide)
peptide: ILEDKGGDAQNLIGISI
notes: Synthetic peptide; termini given free; also called peptide PRE 8
binding capacity (%) (PKC-ζ (purified isoform) [11]): 0% | binding capacity (%) (PKC-ζ (purified isoform) [12]): 0% | binding capacity (%) (PKC-δ (purified isoform) [13]): 6.96% | binding capacity (%) (PKC-δ (purified isoform) [14]): 6.68% | binding capacity (%) (PKC-ζ (purified isoform) [15]): 0% | Relative Fluorescence Intensity [10]: 81 | binding result (PKC-ζ (purified isoform) [16]): no binding (tested: 200 µM) | binding capacity (%) (PKC-δ (purified isoform) [17]): 3.38%

B4: PRE 5 (peptide)
peptide: Ac-AKGIQEVKGGKDAQNLIGISI-NH2
notes: Synthetic peptide; also called peptide PRE 5
binding capacity (%) (PKC-δ (purified isoform) [13]): 0.2% | binding capacity (%) (PKC-δ (purified isoform) [14]): 4.31% | Relative Fluorescence Intensity [10]: 124 | binding capacity (%) (PKC-δ (purified isoform) [17]): 0%
